pKd: −log10 of the molar value.
target: recombinant human Osteolectin (human) (UniProt Q9Y240); test: ELISA; microtiter well binding assay; plates coated with 10 nM recombinant human Osteolectin, Pro-Collagen 1α or BSA overnight at 4°C, blocked with 10 mg/ml BSA; 6xHis tagged integrins in TBS (50 mM Tris-Cl pH 7.5, 150 mM NaCl) with 1 mM MnCl2; bound integrin detected with anti-His tag antibody and HRP secondary, OD 450 nm
Sequence (Q9Y240 22-323): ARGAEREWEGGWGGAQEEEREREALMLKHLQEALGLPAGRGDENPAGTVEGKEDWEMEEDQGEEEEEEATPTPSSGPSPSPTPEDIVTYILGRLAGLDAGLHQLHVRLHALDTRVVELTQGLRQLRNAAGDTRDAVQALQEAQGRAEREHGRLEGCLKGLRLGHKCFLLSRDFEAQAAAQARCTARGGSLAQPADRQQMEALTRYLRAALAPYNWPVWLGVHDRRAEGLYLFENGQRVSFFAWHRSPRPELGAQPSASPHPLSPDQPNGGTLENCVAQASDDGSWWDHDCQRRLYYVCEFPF

pKd, < 7.00:
recombinant human integrin αIIbβ3 (from UniProt P08514 32-1039; P05106 27-718) (complex)
recombinant human integrin αVβ1 (from UniProt P06756 31-1048; P05556 21-728) (complex)
recombinant human integrin αVβ3 (from UniProt P06756 31-1048; P05106 27-718) (complex)

From PMC6349404
